According to the RNAGym collection of RNA variant scans (doi:10.7554/elife.90254):

B1: OR4K15 (parent)
chain: GUUAACGGUCAUAGGCCAUGGAAACUAGGAGCACCAUUUCGCUGCCAGUGAAGAAAUGAACAAAGAAAAUCUGGGCCAGGCAGGCAUCAAAAGAAAUAGUCUUGCGCUCAACCAGAAAGUCUGUAAUCAUUUUAAGGGUA

Variants of: B1
Assay: self-cleavage, relative activity (ratio to wild type); higher = more cleavage; in vitro, sequencing; the parent is a self-cleaving ribozyme

In order of rising self-cleavage:
1. U108A A114U  0
2. U108A A140G  0
3. A89U U108G  0
4. U108C  0.01
5. A47U G106U  0.01
6. A110G A114C  0.01
7. A63U U108C  0.01
8. U38C A111G  0.02
9. A18G U108C  0.02
10. C105G G136U  0.02
11. A111U A114U  0.02
12. U49C C105A  0.03
13. U9C C112A  0.03
14. G106A U131C  0.03
15. G73A A90G  0.03
16. U108A A129U  0.03
17. U37C U108A  0.04
18. A30G A114C  0.07
19. A68G G79U  0.07
20. A56G A114U  0.08
21. A67G G104A  0.08
22. G75A U122C  0.08
23. G20A A24G  0.1
24. C76U A96C  0.1
25. A86G A111U  0.11
26. A60G A82U  0.12
27. A69G A116U  0.12
28. A54G G75U  0.12
29. C16A G80U  0.12
30. G75U A117G  0.15
31. G7A A78G  0.19
32. U49C A82U  0.2
33. A47U A82G  0.21
34. A54G A110G  0.21
35. A82G A129U  0.22
36. A69G G99U  0.23
37. C71U U132C  0.25
38. U87A A116G  0.28
39. C81U U122C  0.29
40. U100C A126U  0.32
41. A78G A140G  0.32
42. A51U C76U  0.33
43. U70C U127C  0.35
44. A33G A82G  0.35
45. A67C A110G  0.37
46. U72C G80A  0.38
47. G28A U57C  0.4
48. A47G A89U  0.42
49. U103A U131C  0.45
50. U131A G137U  0.48
51. G8A C35U  0.52
52. A52C A68G  0.55
53. A60U A114G  0.58
54. A68G A126G  0.6
55. A22G A129G  0.61
56. A55U A82G  0.61
57. C77A U100C  0.61
58. A47G U131A  0.62
59. C109U U127G  0.62
60. A62G A116G  0.64
61. A51U U57G  0.64
62. C10U A91G  0.68
63. A13U U130C  0.69
64. U49C A59G  0.7
65. A24G U127C  0.74
66. A94G U131A  0.74
67. U87G  0.74
68. U38C A47U  0.77
69. A95G C109A  0.78
70. A18G A126G  0.8
71. A22G A140U  0.8
72. A30U A56G  0.82
73. A86G U87C  0.87
74. A86G U122C  0.88
75. U26A U39A  0.92
76. A33G A135U  0.95
77. G14A A92G  0.96
78. U19G A69U  0.96
79. G41A A92G  0.97
80. A68G  0.98
81. A92C A114G  0.98
82. U9C A129U  0.98
83. G14A U43C  0.99
84. U131C A135C  1.02
85. A51C U127C  1.02
86. A67U U130C  1.04
87. A13G A24G  1.05
88. A55G  1.06
89. A5G A52G  1.07
90. U2A A89G  1.07
91. C40U U57C  1.07
92. A22G A23G  1.09
93. A30G A89U  1.09
94. A33G U130A  1.1
95. A11U U39C  1.11
96. A92U A129G  1.13
97. U43C A51G  1.14
98. G21A A60G  1.14
99. A13U A66U  1.15
100. U12C C42U  1.16
101. G29A A30G  1.16
102. A23U A27G  1.16
103. A47G A96G  1.18
104. A129U A134U  1.18
105. A64G U100C  1.22
106. C35U A134G  1.23
107. U38C C45U  1.23
108. U12C U70C  1.25
109. A47U A95G  1.25
110. A30G A95C  1.26
111. U49C A126G  1.26
112. G15C U39C  1.26
113. A52G A59U  1.28
114. C45U A60G  1.29
115. U26C A126U  1.29
116. A11G A140U  1.31
117. A18G A68U  1.33
118. C32A U87C  1.38
119. U38A A91G  1.4
120. U38C U57G  1.4
121. A5G G119U  1.44
122. G48A  1.44
123. U9G A54G  1.44
124. U37A A64G  1.44
125. U97C U132C  1.45
126. A47G U139C  1.45
127. A95G U131C  1.46
128. C32A A63G  1.46
129. U26C A36G  1.47
130. A69U A117G  1.48
131. A68G C85U  1.49
132. U19C U37C  1.5
133. U38C U130C  1.5
134. A52C U131C  1.53
135. G8A A92G  1.56
136. U12A A89G  1.57
137. U49G A54G  1.61
138. C77U U130C  1.61
139. U38C A92U  1.63
140. G58A A117G  1.66
141. A36G U122A  1.66
142. A60G U97A  1.69
143. A60C  1.7
144. A5U G138A  1.71
145. A36G U132C  1.72
146. A67U A89G  1.74
147. A51U U127A  1.75
148. A68U U132C  1.76
149. A24U A51G  1.78
150. A18U A23U  1.88
151. A94G A95G  1.9
152. A51U U87A  1.92
153. G8U A23G  1.93
154. U39C A62U  1.95
155. C42U A54G  1.96
156. U3A U102C  1.99
157. A22U G138U  2.01
158. C61U U120A  2.02
159. U49C A64G  2.02
160. U19C U43A  2.04
161. U43A U139G  2.1
162. A47G U100G  2.14
163. A67U A92G  2.2
164. A33G U100C  2.23
165. A18G U100C  2.34
166. U9C U139C  2.45
167. A95G G136U  2.65
